PMC3484714 (Journal of the American Chemical Society, 2012)
Where two headings read alike, the source gives them in different places.

B1: methyltransferase (MeTr) from Moorella thermoacetica, homodimer (enzyme, UniProt Q46389 1-262, looked up)
chain: MLIIGERINGMFGDIKRAIQERDPAPVQEWARRQEEGGARALDLNVGPAVQDKVSAMEWLVEVTQEVSNLTLCLDSTNIKAIEAGLKKCKNRAMINSTNAEREKVEKLFPLAVEHGAALIGLTMNKTGIPKDSDTRLAFAMELVAAADEFGLPMEDLYIDPLILPANVAQDHAPEVLKTLQQIKMLADPAPKTVLGLSNVSQNCQNRPLINRTFLAMAMACGLDAAIADACDEALIETAATAEILLNQTVYCDSFVKMFKTR

Legend:
[1] = molecular target: the molecule itself; assay: SAXS
[2] = molecular target: B1; assay: ITC
[3] = molecular target: B1; assay: SAXS
[4] = molecular target: B1; assay: SAXS; remark: listed apart in the source

| Binder | stoichiometry N [1] | KD of the first binding event [2] | KD of the second binding event [2] | dH (1:1 complex) [2] | stoichiometry N [3] | stoichiometry N [4] |
| --- | --- | --- | --- | --- | --- | --- |
| B1 | 2 |  |  |  |  |  |
| corrinoid iron-sulfur protein (CFeSP) from Moorella thermoacetica, heterodimer of large and small subunit (complex) chain 1: MPLTGLEIYKQLPKKNCGECGTPTCLAFAMNLASGKASLDSCPYVSDAAREALDAAAAPPIAKVVLGAGPTAVEMGDETELFRHDKRFYHETAIAIQVSDNLSSEELKAKVEAINGLNFDRVGQHYTIQAIAIRHDADDPAAFKAAVASVAAATQLNLVLMADDPDVLKEALAGVADRKPLLYAATGANYEAMTALAKENNCPLAVYGNGLEELAELVDKIVALGHKQLVLDPGARETSRAIADFTQIRRLAIKKRFRSFGYPIIALTTAANPLDEVLQAVNYVTKYASLVVLRTDAKEHLLPLLSWRQNLYTDPQVPIRVEEKLNEIGAVNENSPVYVTTNFSLTYYSVEGEIESTKIPSYLLSVDTDGLSVLTAYADGKFEAEKIAAVMKKVDLDNKVKRHRIIIPGAVAVLKGKLEDLTGWEVIVGPREASGIVAFARANLAS chain 2: MAVQILRDRSRAAVQKVVLGATKDQGGTRSHTIVVGGDAALPFHHFEGEIVNRPVIGMEVQDIVPDWPDVLKDPFTDVINEPGRWAQKCVAEYGADLIYLKLDGADPEGANHSVDQCVATVKEVLQAVGVPLVVVGCGDVEKDHEVLEAVAEAAAGENLLLGNAEQENYKSLTAACMVHKHNIIARSPLDINICKQLNILINEMNLPLDHIVIDPSIGGLGYGIEYSFSIMERIRLGALQGDKMLSMPVICTVGYEAWRAKEASAPVSEYPGWGKETERGILWEAVTATALLQAGAHILLMRHPEAVARVKENIDQLMVSNAY |  | 7.7 µM | 111 µM | 4.9 kcal/mol | 1 CFeSP heterodimer per MeTr homodimer | 2 CFeSP heterodimer per MeTr homodimer |
